Data on one molecule can be found in publication doi:10.1101/2021.04.07.438830 (bioRxiv, 2021).

The test concerns the target T1, GST-KPC2 (UniProt Q9BSL1 1-405).
T1 sequence: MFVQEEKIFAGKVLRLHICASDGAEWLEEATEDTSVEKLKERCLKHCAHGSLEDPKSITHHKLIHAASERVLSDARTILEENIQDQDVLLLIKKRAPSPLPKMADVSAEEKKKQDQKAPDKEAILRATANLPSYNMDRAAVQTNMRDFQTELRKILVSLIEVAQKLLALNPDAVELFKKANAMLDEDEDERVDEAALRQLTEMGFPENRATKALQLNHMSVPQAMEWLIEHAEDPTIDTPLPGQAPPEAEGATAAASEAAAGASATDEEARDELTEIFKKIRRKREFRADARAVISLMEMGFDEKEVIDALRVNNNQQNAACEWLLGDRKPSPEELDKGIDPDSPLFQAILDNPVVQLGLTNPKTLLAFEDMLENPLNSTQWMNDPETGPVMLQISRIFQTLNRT
Description: pull-down.

B1: GST-p65 (1-307) (domain or fragment)
chain: MDELFPLIFPAEPAQASGPYVEIIEQPKQRGMRFRYKCEGRSAGSIPGERSTDTTKTHPTIKINGYTGPGTVRISLVTKDPPHRPHPHELVGKDCRDGFYEAELCPDRCIHSFQNLGIQCVKKRDLEQAISQRIQTNNNPFQVPIEEQRGDYDLNAVRLCFQVTVRDPSGRPLRLPPVLSHPIFDNRAPNTAELKICRVNRNSGSCLGGDEIFLLCDKVQKEDIEVYFTGPGWEARGSFSQADVHRQVAIVFRTPPYADPSLQAPVRVSMQLRRPSDRELSEPMEFQYLPDTDDRHRIEEKRKRTYE
Take B1: the binding result is listed as “binds”.
